Measured values: the Human Domainome abundance scans (Beltran et al. 2025)
± gives the uncertainty stated by the source.

B1: Protein piccolo, residues 1058 to 1114; numbered along this chain, Q9Y6V0 (parent)
chain: TCPLCKTELNIGSKDPPNFNTCTECKNQVCNLCGFNPTPHLTEIQEWLCLNCQTQRA

Variants of: B1
Assay: abundance fitness (aPCA) (normalised: wild type 0, dead -1); higher = more abundant; growth selection in yeast, the domain comes from the species named
Details: Homo sapiens

Abundance fitness, by site and new letter:
T42: Q 0.062 ± 0.16; D -0.015 ± 0.22; V 0.073 ± 0.14; S -0.011 ± 0.11; G 0.122 ± 0.1; C 0.064 ± 0.14; L -0.091 ± 0.088; P -0.137 ± 0.13; I -0.105 ± 0.18; N 0.097 ± 0.39; H 0.123 ± 0.22; K -0.056 ± 0.18; M -0.253 ± 0.19; E -0.122 ± 0.16; W -0.166 ± 0.13; A 0.055 ± 0.11; Y -0.301 ± 0.19
E43: W -0.09 ± 0.33; S -0.2 ± 0.12; F -0.289 ± 0.2; A -0.048 ± 0.16; Y -0.443 ± 0.32; T -0.091 ± 0.18; K -0.003 ± 0.27; L -0.398 ± 0.13; R 0.11 ± 0.13; H -0.671 ± 0.36; Q -0.167 ± 0.18; M -0.191 ± 0.18; G 0.003 ± 0.11; V -0.202 ± 0.11; N -0.123 ± 0.38; I -0.301 ± 0.2; D -0.096 ± 0.19
G34: N -0.925 ± 0.35; Q -0.072 ± 0.15; L 0.043 ± 0.087; Y -0.15 ± 0.13; W -0.242 ± 0.12; V -0.037 ± 0.094; T -1.02 ± 0.15; E -0.292 ± 0.17; S -0.106 ± 0.088; H -0.37 ± 0.24; M -0.643 ± 0.12; P -0.63 ± 0.17; A -0.083 ± 0.15; I -0.885 ± 0.28; D -0.075 ± 0.19; K -0.794 ± 0.19; F -0.035 ± 0.12; R -0.102 ± 0.099
I44: H -0.166 ± 0.25; V -0.014 ± 0.15; Q 0.074 ± 0.2; G 0.02 ± 0.14; E 0.146 ± 0.16; S 0.045 ± 0.13; M -0.214 ± 0.21; F 0.155 ± 0.18; T -0.273 ± 0.17; N -0.144 ± 0.24; W -0.312 ± 0.16; P 0.126 ± 0.19; R -0.138 ± 0.14; A -0.022 ± 0.17; C 0.026 ± 0.2; D -0.38 ± 0.39; Y -0.274 ± 0.22; K 0.247 ± 0.46
L32: N -0.176 ± 0.24; G 0.279 ± 0.088; M -0.131 ± 0.13; C -0.017 ± 0.13; P -0.134 ± 0.14; D -0.032 ± 0.2; W 0.015 ± 0.094; H 0.073 ± 0.14; A 0.124 ± 0.1; V 0.104 ± 0.092; K 0.172 ± 0.16; Y -0.218 ± 0.17; S 0.128 ± 0.093; T -0.017 ± 0.15; I -0.097 ± 0.2; R 0.175 ± 0.087
N36: D -0.093 ± 0.16; S -0.12 ± 0.095; V 0.068 ± 0.09; I -0.129 ± 0.14; T -0.28 ± 0.14; A -0.097 ± 0.097; E 0.099 ± 0.12; C -0.054 ± 0.12; G 0.038 ± 0.087; F 0.044 ± 0.14; W -0.08 ± 0.11; M 0.033 ± 0.13; Q -0.011 ± 0.15; K 0.08 ± 0.14; H 0.313 ± 0.24
T38: I -0.143 ± 0.16
Q45: I -0.047 ± 0.19; D -0.254 ± 0.39; V 0.046 ± 0.14; Y 0.047 ± 0.2; N 0.016 ± 0.29; F -0.127 ± 0.17; L -0.093 ± 0.1; W 0.233 ± 0.17; T -0.202 ± 0.15; R -0.003 ± 0.1; P -0.141 ± 0.18; G 0.037 ± 0.12; H -0.357 ± 0.23; S -0.037 ± 0.12; E -0.38 ± 0.31; K 0.268 ± 0.28; M -0.015 ± 0.19
Q28: E -0.164 ± 0.13; W -0.115 ± 0.11; P -0.099 ± 0.14; I -0.579 ± 0.21; C 0.018 ± 0.11; V -0.033 ± 0.1; L -0.078 ± 0.091; T -0.015 ± 0.13; N -0.125 ± 0.18; M 0.186 ± 0.14; Y -0.179 ± 0.18; G 0.038 ± 0.1; A 0.09 ± 0.13; F -0.185 ± 0.12; S 0.007 ± 0.095; R 0.004 ± 0.086; D -0.398 ± 0.26; H -0.206 ± 0.16; K -0.265 ± 0.2
V29: F -0.217 ± 0.075; E -0.178 ± 0.12; Q -0.212 ± 0.099; T -0.118 ± 0.073; I -0.241 ± 0.078; P -0.545 ± 0.085; A -0.064 ± 0.083; M -0.039 ± 0.1; R -0.148 ± 0.076; H -0.1 ± 0.076; C 0.028 ± 0.084; D -0.32 ± 0.092; L -0.284 ± 0.072; Y -0.082 ± 0.077; G -0.198 ± 0.078; N -0.199 ± 0.077; W -0.131 ± 0.097; K -0.326 ± 0.11; S -0.265 ± 0.068
N31: M -0.147 ± 0.15; T -0.173 ± 0.14; Q 0.014 ± 0.12; D 0.003 ± 0.26; S 0.056 ± 0.098; I -0.121 ± 0.16; V 0.045 ± 0.1; R 0.012 ± 0.088; G 0.028 ± 0.096; Y 0.011 ± 0.16; H 0.118 ± 0.18; K 0.12 ± 0.16; F 0.117 ± 0.13; C 0.093 ± 0.11; W -0.19 ± 0.097; E 0.148 ± 0.15; L 0.072 ± 0.083
C33: L -0.819 ± 0.089; Y -1.26 ± 0.17; T -0.952 ± 0.14; D -0.336 ± 0.2; Q -0.623 ± 0.17; P -0.795 ± 0.14; H 0.076 ± 0.13; F -0.92 ± 0.16; A -0.588 ± 0.12; E -0.349 ± 0.13; R -0.729 ± 0.1; S -0.646 ± 0.097; W -1.01 ± 0.12; I -0.933 ± 0.15; K -0.822 ± 0.18; N -0.641 ± 0.15; V -0.743 ± 0.12; M -0.812 ± 0.14
W47: G 0.056 ± 0.15; D 0.006 ± 0.26; N -0.354 ± 0.29; Y -0.493 ± 0.25; F -0.065 ± 0.16; K -0.111 ± 0.25; H -0.135 ± 0.49; M -0.06 ± 0.17; L 0.056 ± 0.1; T -0.195 ± 0.17; A -0.102 ± 0.14; Q -0.09 ± 0.19; C -0.134 ± 0.16; I -0.049 ± 0.38; S -0.03 ± 0.14; E 0.031 ± 0.18; P -0.039 ± 0.22
F35: S 0.236 ± 0.084; N 0.066 ± 0.15; C 0.019 ± 0.13; G 0.175 ± 0.096; V 0.108 ± 0.092; P 0.285 ± 0.14; L 0.175 ± 0.08; Q 0.25 ± 0.15; M 0.291 ± 0.12; R 0.21 ± 0.087; Y 0.022 ± 0.15; D 0.218 ± 0.14; W -0.288 ± 0.11; T 0.298 ± 0.14; E 0.275 ± 0.14; A 0.139 ± 0.1; K 0.255 ± 0.15; H 0.275 ± 0.15
N27: Q 0.112 ± 0.15; S 0.12 ± 0.12; L 0.157 ± 0.088; T -0.082 ± 0.18; W 0.174 ± 0.11; V 0.163 ± 0.09; R 0.106 ± 0.096; Y -0.452 ± 0.18; P -0.317 ± 0.14; M -0.088 ± 0.16
C30: Y -1.03 ± 0.14; W -1 ± 0.14; N -0.612 ± 0.18; V -0.594 ± 0.099; S -0.429 ± 0.095; I -0.887 ± 0.2; F -0.991 ± 0.14; E -0.532 ± 0.16; A -0.562 ± 0.11; G -0.584 ± 0.1; Q -0.619 ± 0.15; M -0.734 ± 0.14; T -0.597 ± 0.13; D -0.499 ± 0.18; R -0.541 ± 0.099; L -0.971 ± 0.11; H -0.17 ± 0.24; P -0.807 ± 0.14
P39: C -0.115 ± 0.13; T -0.005 ± 0.13; Y -0.131 ± 0.14; K 0.193 ± 0.15; I -0.013 ± 0.17; V 0.092 ± 0.098; Q 0.099 ± 0.13; F 0.025 ± 0.16; D -0.117 ± 0.18; W -0.303 ± 0.11; L -0.001 ± 0.084; H -0.393 ± 0.33; N -0.214 ± 0.21; S 0.069 ± 0.093; G -0.211 ± 0.1; A 0.018 ± 0.12; R 0.008 ± 0.087
H40: M 0.004 ± 0.13; Q -0.065 ± 0.18; R 0.093 ± 0.087; S 0.156 ± 0.094; C 0.046 ± 0.13; P 0.085 ± 0.13; L -0.02 ± 0.088; I -0.018 ± 0.18; F -0.105 ± 0.15; A 0.076 ± 0.11; K -0.06 ± 0.14; W -0.206 ± 0.13; E -0.065 ± 0.14; T 0.185 ± 0.14; Y -0.13 ± 0.15; V 0.051 ± 0.1
L41: I 0.188 ± 0.21; P -0.037 ± 0.14; W -0.133 ± 0.11; H -0.247 ± 0.2; Q 0.007 ± 0.17; D 0.004 ± 0.19; C 0.004 ± 0.14; Y 0.081 ± 0.18; T 0.109 ± 0.13; A 0.117 ± 0.11; R 0.2 ± 0.097; E -0.015 ± 0.15; S 0.033 ± 0.093; F 0.149 ± 0.12; K 0.176 ± 0.17; N 0.128 ± 0.2; V 0.044 ± 0.091; M -0.189 ± 0.12
E46: G -0.042 ± 0.12; V -0.033 ± 0.12; W -0.401 ± 0.18; A -0.176 ± 0.13; K -0.079 ± 0.17; Y -0.349 ± 0.25; T -0.083 ± 0.19; L -0.124 ± 0.1; Q 0.007 ± 0.17; R -0.085 ± 0.1; D -0.415 ± 0.38; F -0.363 ± 0.17; C -0.292 ± 0.16
P37: A -0.02 ± 0.13; R 0.032 ± 0.091; M -0.098 ± 0.12; C 0.05 ± 0.14; K -0.054 ± 0.17; Q 0.097 ± 0.17; V 0.14 ± 0.1; G 0.039 ± 0.087; Y -0.451 ± 0.28; L -0.023 ± 0.094; W -0.012 ± 0.11; T 0.079 ± 0.18; D 0.247 ± 0.3; S 0.016 ± 0.1; E 0.138 ± 0.12
